{"source": "paper PMC2915760", "substrate": "O=[N+]([O-])c1ccc(OP(=O)(O)O)cc1", "assay": "purified protein", "data": [{"protein": "Lyp (lymphoid-specific protein tyrosine phosphatase, PTPN22), wild-type (Homo sapiens) (protein) MDQREILQKFLDEAQSKKITKEEFANEFLKLKRQSTKYKADKTYPTTVAEKPKNIKKNRYKDILPYDYSRVELSLITSDEDSSYINANFIKGVYGPKAYIATQGPLSTTLLDFWRMIWEYSVLIIVMACMEYEMGKKKCERYWAEPGEMQLEFGPFSVSCEAEKRKSDYIIRTLKVKFNSETRTIYQFHYKNWPDHDVPSSIDPILELIWDVRCYQEDDSVPICIHCSAGCGRTGVICAIDYTWMLLKDGIIPENFSVFSLIREMRTQRPSLVQTQEQYELVYNAVLELFKRQM", "values": [{"measurement": "Km", "value": "4.86 ± 0.39", "unit": "mM"}]}]}
